The target of assay [1] is T1, BCL6 BTB domain (Homo sapiens, UniProt P41182, C67R/C84N/C8Q). The assay is described as follows: biochemical. How it is done:
Protein Expression and Purification. […] BCL6 BTB domain protein was produced by thrombin digestion of the thioredoxin fusion proteins, and repurified by size-exclusion chromatography in 500 mM NaC1, 20 mM Tris-HCl, 10% glycerol, 1.0 mM TCEP, pH 8.5. Corepressor fusion proteins were biotinylated with BirA and digested with TEV protease to yield peptides for SPR analysis with a biotinylated lysine eight amino acids N-terminal to the first corepressor residue, or digested with thrombin to produce peptides with no additional N-terminal residues for co-crystallization or ITC.
ITC: The binding of SMRT^1414-1430 to BTB domain protein was analyzed on a Microcal VP-ITC instrument at 25° C. All components were in 150 mM NaCl, 20 mM Hepes pH 7.7, 1 mM TCEP. The experiment consisted of thirty 6.93 μL injections of a solution containing 480 μM SMRT^1414-1430 into a sample cell containing 1.8 mL of either BCL6 BTB (23.0 μM) or PLZF BTB (38.5 μM). To correct for dilution and mixing effects, a series of control injections was carried out, in which the heat of dilution was measured in blank titrations by injecting the peptide into the buffer.

Assay [2] addresses T2, BCL6 BTB domain H116A mutant (Homo sapiens, UniProt P41182, C67R/C84N/C8Q/H116A).
T2 construct: which is BCL6 residues 5-129, with the point mutations C8Q, C67R and C84N; thioredoxin-6His-TEV site-BirA motif-thrombin site fusion (N, cleaved yes); made in house; host or cells: E. coli
The assay is described as follows: Co-purification assay with mutant BCL6 BTB domain H116A. The assay is classed as binding. Here is the method:
(§1) In vitro binding assays. Co-purification: Equimolar amounts of His-tagged thioredoxin-corepressor fusion protein and BCL6 BTB or PLZF BTB domain were combined, incubated for at least two hours, and loaded onto a Ni-NTA spin column (Qiagen). The column was washed three times with 600 μl of wash buffer (200 mM NaCl, 20 mM Tris-HCl pH 8.0, 10 mM imidazole), and bound protein was released with 400 μl of elution buffer (200 mM NaCl, 20 mM Tris-HCl pH 8.0, 300 mM imidazole). Samples were analyzed on 10-20% SDS-PAGE gels and stained with Coomassie blue.

Assay [3] deals with T3, BCL6 BTB domain N21K mutant (Homo sapiens, UniProt P41182, C67R/C84N/C8Q/N21K).
T3 construct: which is BCL6 residues 5-129, with the point mutations C8Q, C67R and C84N; thioredoxin-6His-TEV site-BirA motif-thrombin site fusion (N, cleaved yes); made in house; host or cells: E. coli
The assay is described as follows: Co-purification assay with mutant BCL6 BTB domain N21K. Type of assay: binding. Here is the method:
as §1

The target in assay [4] is T1, BCL6 BTB domain. As to the kind of experiment: Surface plasmon resonance (SPR) binding of BCL6 BTB domain to immobilized corepressor peptides. Further details: which is BCL6 residues 5-129, with the point mutations C8Q, C67R and C84N; made in house. Particulars: for relative binding affinity by SPR: relative to the longer SMRT peptide(s). How it is done: Protein Expression and Purification. […] BCL6 BTB domain protein was produced by thrombin digestion of the thioredoxin fusion proteins, and repurified by size-exclusion chromatography in 500 mM NaC1, 20 mM Tris-HCl, 10% glycerol, 1.0 mM TCEP, pH 8.5.
SPR: Biotinylated corepressor peptides were coupled to streptavidin-coated sensor chips to a density of 800 response units (Biacore 2000). BCL6 or PLZF BTB protein was serially diluted in running buffer (10 mM Hepes, pH 7.4, 150 mM NaCl, 3 mM EDTA, 0.005% v/v surfactant P20) and injected at a flow rate of 5 μL/min.

Assay [5] concerns the target T1, BCL6 BTB domain. The assay is described as follows: Electrophoretic mobility shift assay (EMSA) for complex formation of BCoR fragments with BCL6 BTB domain. The following applies: non-denaturing PAGE. Type of assay: binding. Further details: which is BCL6 residues 5-129, with the point mutations C8Q, C67R and C84N; made in house. How it is done: Further mapping of the minimal BCoR fragment was done with a version of an electrophoretic mobility shift assay (EMSA). Purified BCL6 BTB domain was mixed with a BCoR fragment (either as a fusion protein or as a purified peptide) and incubated at room temperature in a non-denaturing buffer. The mixture was analyzed by non-denaturing polyacrylamide gel electrophoresis (PAGE) and protein bands were visualized with either Coomassie blue staining or silver staining. A change in the position of the BCL6 BTB domain band was indicative of complex formation. […] These two sequences correspond to a S507A / W509A / V511A BCoR triple mutation, and to a S507W / W509S BCoR double mutation, respectively.

The target in assay [6] is T1, BCL6 BTB domain. The assay is described as follows: Co-purification assay (Ni-NTA) of His-tagged corepressor fusion proteins with BTB domain. Type of assay: binding. Further details: which is BCL6 residues 5-129, with the point mutations C8Q, C67R and C84N; made in house. How it is done:
as §1
The initial BCL6 interacting fragment identified in the yeast two-hybrid screen consisted of residues 112-753 of BCoR (Huynh et al., 2000).

Entries after “also recorded” stand apart in the source; their conditions may differ. Residues, ends and D or L forms follow the SMILES beside them. No end group written: not given here.

With `CC[C@H](C)[C@H](NC(=O)[C@H](CO)NC(=O)[C@H](CCCNC(=N)N)NC(=O)CNC(=O)[C@H](C)NC(=O)[C@H](CCC(=O)O)NC(=O)[C@H](CCCCN)NC(=O)[C@@H](NC(=O)[C@@H](NC(=O)[C@H](C)NC(=O)[C@@H](NC(=O)[C@@H](N)CC(C)C)C(C)C)[C@@H](C)O)C(C)C)C(=O)N[C@@H](Cc1c[nH]cn1)C(=O)N[C@@H](CCC(=O)O)C(=O)N[C@H](C(=O)N1CCC[C@H]1C(=O)N[C@@H](CCCNC(=N)N)C(=O)O)[C@@H](C)CC` [SMRT^1414-1430, lvatvkeagrsiheipr] (H-LVATVKEAGRSIHEIPR-OH), at BCL6 BTB domain [1], the “stoicheometry of the interaction by ITC” value is listed as 1.11 ±0.06 SMRT peptides per BCL6 chain. Besides, on BCL6 BTB domain [1] (ITC), the “enthalpic contribution ΔH” value is -23.2 ± 1.6 kcal/mol and the “entropic contribution −TΔS” value was 16.4±2.3. Further, in assay [2], the “binding to H116A mutant BCL6 BTB domain” value is “does not bind”. Further, the “binding to N21K mutant BCL6 BTB domain” value in assay [3] is recorded as “does not bind”. The “relative binding affinity by SPR” value on BCL6 BTB domain [4] is recorded as “stronger binding”. Molecule `CC[C@H](C)[C@H](NC(=O)[C@H](CO)NC(=O)[C@H](CCCNC(=N)N)NC(=O)CNC(=O)[C@H](C)NC(=O)[C@H](CCC(=O)O)NC(=O)[C@H](CCCCN)NC(=O)[C@@H](NC(=O)[C@@H](NC(=O)[C@H](C)NC(=O)[C@@H](NC(=O)[C@@H](N)CC(C)C)C(C)C)[C@@H](C)O)C(C)C)C(=O)N[C@@H](Cc1cnc[nH]1)C(=O)N[C@@H](CCC(=O)O)C(=O)N[C@H](C(=O)N1CCC[C@H]1C(=O)N[C@@H](CCCNC(=N)N)C(=O)O)[C@@H](C)CC` [SMRT^1414-1430, lvatvkeagrsiheipr] (H-LVATVKEAGRSIHEIPR-OH) gave a Kd at BCL6 BTB domain [1] of 11.4 ± 1 µM. “BCoR 494-510: thioredoxin-6his fusion protein with BCoR residues 494-510 (CAIYRSEIISTAPSSWV; also: thioredoxin-6His fusion protein)”: the “complex formation with the BCL6 BTB domain (EMSA band shift)” value (“complex formation … (EMSA band shift)” below) in the assay with BCL6 BTB domain [5] is recorded as “do not interact”. For the molecule “BCoR 494-514: thioredoxin-6his fusion protein with BCoR residues 494-514 (CAIYRSEIISTAPSSWVVPGP; also: thioredoxin-6His fusion protein)”, the “complex formation … (EMSA band shift)” value with BCL6 BTB domain [5] is “complexes were present”. The same measure, in the same setting: next, “BCoR 502-522: thioredoxin-6his fusion protein with BCoR residues 502-522 (ISTAPSSWVVPGPSPNEENNG; also: thioredoxin-6His fusion protein)”: “complexes were present”; “BCoR 506-522: thioredoxin-6his fusion protein with BCoR residues 506-522 (PSSWVVPGPSPNEENNG; also: thioredoxin-6His fusion protein)”: “do not interact”. “CAIYRSEIISTAPSSWVVPGPSPNE (not fully specified) [BCoR 494-518, thioredoxin-6his fusion protein with BCoR residues 494-518]”: the “complex formation … (EMSA band shift)” value with BCL6 BTB domain [5] is given as “forms a complex; also recorded: complexes were present”. Regarding “N-CoR^1351-1383: N-CoR corepressor peptide, residues 1351-1383, equivalent to the SMRT fragment (IHEIPRQDILTQESRKTPEVVQSTRPIIEGSIS; UniProt O75376 1351-1383, looked up, fragment)”, the “fold stronger affinity of the BTB domain relative to the longer SMRT peptide” value with BCL6 BTB domain [4] (SPR, ratio of dissociation constants) came out at 2.5 fold. Consider “RSEIISTAPASAVAPGP [BCoR peptide with S507A / W509A / V511A triple mutation]”, for which the “complex formation … (EMSA band shift)” value with BCL6 BTB domain [5] is reported as “did not result in a shift”. On the same count and under the same terms, the value for RSEIISTAPSSWVVPGP [BCoR 498-514] was “complexes were present”. Same read-out and setting: next, “RSEIISTAPWSSVVPGP [BCoR peptide with S507W / W509S double mutation]”: “did not result in a shift”. “SMRT^1417-1441: N-terminally truncated SMRT corepressor peptide, residues 1417-1441 (TVKEAGRSIHEIPREELRHTPELPL; not fully specified)”: the “relative binding affinity by SPR” value in the assay with BCL6 BTB domain [4] is “slightly weaker binding”. As for “Trx-(SMRT-BBD): His-tagged thioredoxin fusion protein of the SMRT-BBD (LVATVKEAGRSIHEIPR; also: His-tagged thioredoxin fusion protein)”, in assay [2], the “binding to H116A mutant BCL6 BTB domain” value is on record as “significantly reduced affinity”. Also, the “binding to N21K mutant BCL6 BTB domain” value in assay [3] is recorded as “no binding at all”.

B1: BCoR 112 to 342: hexahistidine tagged fusion protein containing residues 112 to 342 of BCoR (protein, UniProt Q6W2J9 112-342, looked up, fragment)
chain: LGFSSERNPEMQFKPNTPETVEASAVSGKPPNGFSAIYKTPPGIQKSAVATAEALGLDRPASDKQSPLNINGASYLRLPWVNPYMEGATPAIYPFLDSPNKYSLNMYKALLPQQSYSLAQPLYSPVCTNGERFLYLPPPHYVGPHIPSSLASPMRLSTPSASPAIPPLVHCADKSLPWKMGVSPGNPVDSHAYPHIQNSKQPRVPSAKAVTSGLPGDTALLLPPSPRPSPR
modifications: hexahistidine tag
notes: hexahistidine tagged fusion protein containing residues 112 to 342 of BCoR
Regarding B1, in the assay with BCL6 BTB domain [6], the “binding to BCL6 BTB domain in co-purification assay” value (shortened to “binding to BCL6 BTB domain”) is reported as “did not”.

B2: BCoR 542 to 753: hexahistidine tagged fusion protein containing residues 542 to 753 of BCoR (protein, UniProt Q6W2J9 542-753, looked up, fragment)
chain: SSCPRMGGTDAVITNVSGSVSSAGRPASASPAPNANADGTKTSRSSVETTPSVIQHVGQPPATPAKHSSSTSSKGAKASNPEPSFKANENGLPPSSIFLSPNEAFRSPPIPYPRSYLPYPAPEGIAVSPLSLHGKGPVYPHPVLLPNGSLFPGHLAPKPGLPYGLPTGRPEFVTYQDALGLGMVHPMLIPHTPIEITKEEKPERRSRSHERA
modifications: hexahistidine tag
notes: hexahistidine tagged fusion protein containing residues 542 to 753 of BCoR
Consider B2, for which, in the assay with BCL6 BTB domain [6], the “binding to BCL6 BTB domain” value is given as “did not”.

B3: BCoR fragment 317-547: hexahistidine tagged fusion protein containing residues 317 to 547 of BCoR (protein)
chain: SAKAVTSGLPGDTALLLPPSPRPSPRVHLPTQPAADTYSEFHKHYARISTSPSVALSKPYMTVSSEFPAARLSNGKYPKAPEGGEGAQPVPGHARKTAVQDRKDGSSPPLLEKQTVTKDVTDKPLDLSSKVVDVDASKADHMKKMAPTVLVHSRAGSGLVLSGSEIPKETLSPPGNGCAIYRSEIISTAPSSWVVPGPSPNEENNGKSMSLKNKALDWAIPQQRSSSCPRM
modifications: left off: large carriers
notes: hexahistidine tagged fusion protein containing residues 317 to 547 of BCoR
As to B3, the “binding to H116A mutant BCL6 BTB domain” value in assay [2] was “did not bind”. The “binding to N21K mutant BCL6 BTB domain” value in assay [3] is reported as “did not bind”. In the assay with BCL6 BTB domain [6], the “binding to BCL6 BTB domain” value was “bound directly”.

The record behind these values is patent publication US8703503B2, “Methods and compositions for inhibition of BCL6 repression” (Albert Einstein School of Medicine of Yeshiva University, priority 2003, dated 2014).
